Measurements reported in patent US9371519B2, “Complex type sugar chain hydrolase” (National Institute of Advanced Industrial Science and …, priority 2011, dated 2016).

B1: Endo-Pa: endo-β-N-acetylglucosaminidase from Pichia anomala ATCC36904, amino acid sequence SEQ ID NO. 9, 656 amino acids (protein, listed as Pichia anomala)
chain: MQHDHAAIKFEEDSISSQRFSSLDEVEKWYNTKNRSPLDDLRIPRESLSHYNRFRDNNDEIKVLVCHDFKGNYQEGEDENPLGYFPHSSGQHYFIQFPSLVDLFIFFSHYKIAVPPVSWINSLHRQGIPVLGTLIFEGTDVSESDKLLEKNENGDFKYLEILCELVRHYGFDGWLVNMESHFSSVAKAQDLLLFDEALRSTLHLKVPGSKLIWYDSLITQKNRVFYQNAVNEWNYDHFSTSDLFFTNYWWNEEDLKRNILNIGLQGVKQKLFVGVDIWGRGSRIGNGGFESGLAINYLKRYSTNVALFAPAWTYENFEEDQFLIKDRKFWIGDQTSDETGGSVATYVSHYTTPVYVKDQNVKFYTNFSVGEGTKYRVFAHTVFKNNWVNGNLQLPTPIIDNEKRIDIYYKESFNGGSSLKVTQRNSILNDGKSNILQLFSFKNDIHSNNLNVSVSFKYLSEIPLNSTFQLEIKFYIERRYRSVTRVRDGTFKLPLAFSNKNWKYIETSFALPRLQIREHFVLEGLQIRWVDNVDELSSSIGTSGDFTESWIIVPQNSDPNAVYELLIGDLLVEGIKTANGNIDAVTKLSRKITLDSRSILATWKDDTEVLYWIIYVNAKFLGIAHKSLWRVQRGDKLRVDVFTRSGKLVKGEDIFI
B2: Endo-Om: endo-β-N-acetylglucosaminidase from methylotrophic yeast Ogataea minuta IFO10746, amino acid sequence SEQ ID NO. 1, 772 amino acids (protein, listed as Ogataea minuta)
chain: MAQSQLLGGAVRPVFFDKLEELRRWHTQSANLSRESELDSLNVATEPFSSYERAQTGSGSRSSEPVPGDKEDPPIKLMVCHDFKGGYQDYEDAQPLGYFPHPTGSRYFLQYPQLIDQFVYFSHHRVTVPPVNWINFCHRNGIKCFGTVIFEGNASKDFEELDRLVSRDEKGDFVFVDALIKLAAHYGFDGYLLNIETTFSNTKIAADLEPFAEQLKSGLHCLDSKNELIWYDSYVFPANKVSYTNGVTESNYNFFSLSDAFFSNYWWNIKNLQENIKNVGVLGVQKKIYVGYDVWGRGTLVGKGGFDSSLACKMIAKFKSNVALFAPAWTYESLGPKDFNQNDARFWIGLFENESSISSTVPPHSSAVYKINESSFIFYTNFSSGEGNRFFSKGSEVYRKNWVNGSLQFDLPIDLHRKDKNGLQWALDKSDAFHGGACLEIKYSEIKDENGYQIFNNQMVSDFTLFNFTKECHFPTVNVKVTYKLNHKTKSTFKIKIKYIIERRFRSVQTVRTGYLTIPLLSTSGKWFTVEESFQINLQTSHEYIVLESAHVTYDEDRSADSFFRSYIVEDSAITSVIDNEEYEKLINSEIYNDDEDEDWILVPSDVSISSSESQSNDSKTQYLGRKLFGNKSTPKTRTLEGTAPLLRIGEFAIISANNYPSSNFLAVTSVKSIESSRLEGDSLVLLNWQVGEGHQKGVCYYIIYVNGAVVGLSVAPKFIYQDTELASENSASARSNYKKSGLGSSSDRKSKVRVDSVDKLGNVFTGSEVWV
B3: Endo-Zr: endo-β-N-acetylglucosaminidase from Zygosaccharomyces rouxii ATCC2623, amino acid sequence SEQ ID NO. 13, 639 amino acids (protein, listed as Zygosaccharomyces rouxii)
chain: MKRINQVPGKPEITSLYFDDLNSLQRWFDKGFMDSRDLSNVPKERYSNYVKFEKDSIITIPNLSARKTEIIVCHDFKGGYQSGHDLYPNGQYGTESCKPYSLRYPEIVDKFVYFSHHCVTIPPSPWTNYLHRHSIPVLGTLILEHYPHNGELFKKNAKGEFLYVKYLVELCRKFHFEGWLINFETVFGNNSKQVIPFLRELTARVECEIYGGSVIWYDAFTTFSNKPSHQNEVNLFNYDAYENSSQFMTNYMWDSHNVGNSLRNVGALGMHSHVALGVDVWGRNMQVCRGGFESNIAIYYAKRFGTNAVIFAPGWTYENFGEDQFYEKDDIFWGNIKSTLQLDSYSDSQLSSWFVSESKKTRYFTTFFSTGSGNFFNLNGRRISNDNWVQLGLSTPFPVNSHSYLSFKDSFVGGSCLALPLSPMENGKLHLFRFEQFIKDQQKTSDSEIRVKLSYKSLGALPPVKLVIKCFVIRRGKRSKTILKVDDVSLVLPLSHSACQTAQGSTKWAVVEQIVPLPSLESRFLEEYYVEDAHLEWTMDNNHDEWLMVPERTEDLDCKLLIGSLCLEIGPHEDNNKRQIVRNGPQLSWQDNESSFMWLKLQDGKLDSVLFTPTTKVNGKQPTILECGRNGTLKFVVKK
B4: Endo-Cp: endo-β-N-acetylglucosaminidase from Candida parapolymorpha DL-1 ATCC26012, amino acid sequence SEQ ID NO. 5, 745 amino acids (protein, listed as Candida parapolymorpha)
chain: MPRNTAKHSSLPQTNLPLSSLESSFFDSLDELANWERRIHEKSFELDELNKPTEKLAHYTRARQQSTSEDVKLLVCHDLKGGYQVNEDEDPLGYFPHPDGQHYFLQYPQLVDKFVYFSHHRVSIPPVSWINVCHRNAIKCLGTVIFEGNTYRDFEEADKLLTKQDGEYVFVRCLVALVEYFQFDGYLFNIETRFSNTRIASLLEPFLEQLRAELHVRNPSTELIWYDSYIYPENRVLYKNGVTEANYNFFSCCDSFFTNYWWNVKHLQDNIKNVGVLGSRLKVYAGYDVWGRGTMIGKGGYDSALACQMIKKYRSNVALFAPAWTYEYLARKDFTQNDTRFWIGLFDGESSMATTFKPYSSPLYKINDSNFVFYTNFGSGEGCAFYECGEKVYRDNWVNGSLQMEIPYAIHTRNKNGIQWTLSKEDSFHGGSCVEIKYNEVVDDKGYQVFNNQTINSFSLFSFVQDCSFPTVNVKLTYKLNHKTKSFFKLKIGYYIERRYRTVQKVRSGCLVVPLLSTNDQWFTIEEPFHVSLQNSHEFIVLDSATIFYEETEDPFMRAHVVEDQSTSSVIDNEEYEKLMNSEIYFDDEDEDWILVPSDISMESTDNGGRENHTWKVISNQIRKKHPKSHPSTSPVLKLGELAIINANDYPSDSFFKLMPVNSIDVRRWEGKILLIWKTNQDSVLYHLIFVDDVFQGISLVSKFVFEDQAVDEKSFKTKSGGSTKVRIDTVNRLGILVKGTDM

Test: Study of optimal reaction conditions (pH and temperature)
Assay type: biochemical
Settings: 10 μM NGA2-Asn-Fmoc; buffers pH 3.5-9.0
Method: Study of the optimal reaction pH for Endo-Om was carried out as follows. A reaction solution containing any of various buffers having a final concentration of 100 mM, 0.5 M of NaCl, 10 μM of NGA2-Asn-Fmoc, and an Endo-Om purified enzyme solution (total volume: 10 μl) was incubated at 50° C. for 1 hour, and heated at 95° C. for 5 minutes, thereby stopping the enzyme reaction. The buffers used herein were a sodium citrate buffer (pH 3.5-5.5), a sodium acetate buffer (pH 4.5-6.0), a sodium phosphate buffer (pH 6.0-7.5), a MOPS-NaOH buffer (pH 6.5-8.0), and a Tris-HCl buffer (pH 8.0-9.0). The reaction solution was subjected to HPLC by the method described in Example 4, and the enzymatic activity was calculated. The optimal reaction temperature was studied by changing the reaction temperature in the activity measurement method described in Example 4 in the range of 10° C. to 60° C.
(§1) Study of the optimal reaction pH for Endo-Cp was carried out as follows. A reaction solution containing any of various buffers having a final concentration of 100 mM, 0.5 M of NaCl, 10 μM of NGA2-Asn-Fmoc, and an Endo-Cp partially purified enzyme solution (total volume: 10 μl) was incubated at 30° C. for 3 hours, and heated at 95° C. for 5 minutes, thereby stopping the enzyme reaction. The buffers used herein were a sodium citrate buffer (pH 3.5-5.5), a sodium acetate buffer (pH 4.5-6.0), a sodium phosphate buffer (pH 6.0-7.5), a MOPS-NaOH buffer (pH 6.5-8.0), and a Tris-HCl buffer (pH 8.0-9.0). The reaction solution was subjected to HPLC by the method described in Example 8, and the enzymatic activity was calculated. The optimal reaction temperature was studied by changing the reaction temperature in the activity measurement method described in Example 8 in the range of 10° C. to 70° C.
as §1, with “Endo-Pa” for “Endo-Cp”, “12,” for “8,”, “The optimal reaction temperature was studied by changing the reaction temperature in the activity measurement method described in Example 8 in the range of 10° C. to 70° C.” left out
Study of the optimal reaction pH for Endo-Zr was carried out as follows. […] The reaction solution was subjected to HPLC by the method described in Example 16, and the enzymatic activity was calculated. […]

Row | Molecule | Optimal pH (optimal reaction pH)
1 | B1 | 5.0-5.5
2 | B2 | about 5.5
3 | B3 | 4.5-5.0
4 | B4 | about 5.5
